The target in one experiment is T1, FITC-labeled β2 peptide (rat, UniProt P63138).
T1 peptide: {FITC′}-MWRVRKRGYFGIWSFPLII
Kind of experiment: FP.

Another experiment addresses T2, FITC-labeled α1 peptide (rat).
T2 peptide: {FITC′}-QPSQDELKDNTTVFT
Description: FP.

Primed or numbered codes have the meaning given here. Ends that are not written are not given here. FITC′ = fluorescein isothiocyanate

B1: G8 scFv (anti-β2 subunit scFv), soluble protein (scFv, V domains shown)
VH: EVQLVQSGAEVKKPGATVKISCKVSGYTFTDYYMHWVQQAPGKGLEWMGLVDPEDGETIYAEKFQGRVTITADTSTDTAYMELSSLRSEDTAVYYCATTPPHDYYDSSGLDYWGQGTLVTVSS
VL: DIQMTQSPSSVSASVGDRVTITCRASQGINRWLAWYQQKPGKAPKLLIYAASNLQSGVPSRFSGSGSGTDFSLTISSLQPEDFATYYCQQSYSPPSTFGGGTKLEIK
In the experiment with FITC-labeled β2 peptide, B1 came in with a Kd of 0.82 µM.

B2: A10 scFv (anti-α1 subunit-specific scFv), soluble protein (scFv, V domains shown)
VH: EVQLVQSGAEVKKPGASVKVSCKASGYTFTSYYMHWVRQAPGQGLEWMGIINPSGGSTSYAQKFQGRVTMTRDTSTSTVYMELSSLRSEDTAVYYCARDGWGGSSFLDYWGQGTLVTVSS
VL: SYELTQPPSVSVSPGQTARITCSGDALPKKYAYWYQQKSGQAPVLVIYEDSKRPSGIPERFSGSSSGTMATLTISGAQVEDEADYYCYSKDNTGYQMVFGGGTKLTVL
In the case of B2, in the experiment with FITC-labeled α1 peptide, binding was characterised by a dissociation constant (Kd) of 3 µM. That is a single-digit micromolar value.

(Values after article PMC3929611 (2014).)
